± gives the standard deviation of the averaged measurements.
Tested on: Sindbis virus TE/5'2J-GFP
Assay: percent infected (GFP+ in RFP+ ISG-expressing cells); higher = more infection (less antiviral activity)
Experimental: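 Confirmatory testing of 87 ISGs. Triplicate wells of BHK/HA-Zeo (control) or BHK/NZAP-Zeo (ZAP) cells were transduced with lentiviruses co-expressing a human ISG plus TagRFP, then infected 48 h later with SINV TE/5'2J-GFP (moi 5). The % GFP+ cells among RFP+ cells was measured by flow cytometry at 8 h post infection. Fluc lentivirus served as control. Three independent experiments.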

[1] = experiment: confirmatory screen 1, BHK/HA-Zeo (control)
[2] = experiment: confirmatory screen 1, BHK/NZAP-Zeo (ZAP)
[3] = experiment: confirmatory screen 2, BHK/HA-Zeo (control)
[4] = experiment: confirmatory screen 2, BHK/NZAP-Zeo (ZAP)
[5] = experiment: confirmatory screen 3, BHK/HA-Zeo (control)
[6] = experiment: confirmatory screen 3, BHK/NZAP-Zeo (ZAP)
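Further: Interferon-defective BHK-21 derivatives, ZAP line overexpressing the rat ZAP N-terminal zinc finger domain fused to Zeocin resistance, GFP scored within live singlet TagRFP+ cells.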

| Substance | percent infected [1] | percent infected [2] | percent infected [3] | percent infected [4] | percent infected [5] | percent infected [6] |
| --- | --- | --- | --- | --- | --- | --- |
| MRSARSTALNRGEQRAVRYYSHMKLNMAEEEDYMSDSFINVQEDIRPGLPMLRQIREARRKEEKQQEANLKNRQKSLKEEEQERRDIGLKNALGCENKGFALLQKMGYKSGQALGKSGGGIVEPIPLNIKTGKSGIGHEASLKRKAEEKLESYRKKIHMKNQAEEKAAEQFRMRLKNKQDEMKLEGDLRRSQRACQQLDVQKNIQVPREAWYWLRLEEETEEDEEEKEQDEDEYKSEDLSVLEKLQILTSYLREEHLYCIWCGTAYEDKEDLSSNCPGPTSADHD [CCDC75] | 93.8 ± 1.8% | 56.8 ± 4.7% | 96.02 ± 0.47% | 95.39 ± 0.41% | 94.54 ± 0.85% | 92.82 ± 0.32% |
| MLRGISQLPAVATMSWVLLPVLWLIVQTQAIAIKQTPELTLHEIVCPKKLHILHKREIKNNQTEKHGKEERYEPEVQYQMILNGEEIILSLQKTKHLLGPDYTETLYSPRGEEITTKPENMEHCYYKGNILNEKNSVASISTCDGLRGYFTHHHQRYQIKPLKSTDEKEHAVFTSNQEEQDPANHTCGVKSTDGKQGPIRISRSLKSPEKEDFLRAQKYIDLYLVLDNAFYKNYNENLTLIRSFVFDVMNLLNVIYNTIDVQVALVGMEIWSDGDKIKVVPSASTTFDNFLRWHSSNLGKKIHDHAQLLSGISFNNRRVGLAASNSLCSPSSVAVIEAKKKNNVALVGVMSHELGHVLGMPDVPFNTKCPSGSCVMNQYLSSKFPKDFSTSCRAHFERYLLSQKPKCLLQAPIPTNIMTTPVCGNHLLEVGEDCDCGSPKECTNLCCEALTCKLKPGTDCGGDAPNHTTE [ADAMDEC1] | 94 ± 2.1% | 66.9 ± 6.3% | 96.2 ± 0.17% | 95.52 ± 0.43% | 94.82 ± 0.19% | 94.56 ± 0.34% |
| MQEGELAISPISPVAAMPPLGTHVQARCEAQINLLGEGGICKLPGRLRIQPALWSREDVLHWLRWAEQEYSLPCTAEHGFEMNGRALCILTKDDFRHRAPSSGDVLYELLQYIKTQRRALVCGPFFGGIFRLKTPTQHSPVPPEEVTGPSQMDTRRGHLLQPPDPGLTSNFGHLDDPGLARWTPGKEESLNLCHCAELGCRTQGVCSFPAMPQAPIDGRIADCRLLWDYVYQLLLDTRYEPYIKWEDKDAKIFRVVDPNGLARLWGNHKNRVNMTYEKMSRALRHYYKLNIIKKEPGQKLLFRFLKTPGKMVQDKHSHLEPLESQEQDRIEFKDKRPEISP [ETV7] | 95.31 ± 0.45% | 67.2 ± 4% | 95.82 ± 0.54% | 95.28 ± 0.2% | 93 ± 1.6% | 93.56 ± 0.55% |
| MKKSGVLFLLGIILLVLIGVQGTPVVRKGRCSCISTNQGTIHLQSLKDLKQFAPSPSCEKIEIIATLKNGVQTCLNPDSADVKELIKKWEKQVSQKKKQKNGKKHQKKKVLKVRKSQRSRQKKTT [CXCL9] | 61.9 ± 6.1% | 44.7 ± 2.9% | 88.7 ± 2.5% | 91.55 ± 0.18% | 83.1 ± 1.5% | 82 ± 1.1% |
| MIAAQAKLVYQLNKYYTERCQARKAAIAKTIREVCKVVSDVLKEVEVQEPRFISSLSEIDARYEGLEVISPTEFEVVLYLNQMGVFNFVDDGSLPGCAVLKLSDGRKRSMSLWVEFITASGYLSARKIRSRFQTLVAQAVDKCSYRDVVKMIADTSEVKLRIRERYVVQITPAFKCTGIWPRSAAQWPMPHIPWPGPNRVAEVKAEGFNLLSKECYSLTGKQSSAESDAWVLQFGEAENRLLMGGCRNKCLSVLKTLRDRHLELPGQPLNNYHMKTLLLYECEKHPRETDWDESCLGDRLNGILLQLISCLQCRRCPHYFLPNLDLFQGKPHSALESAAKQTWRLAREILTNPKSLDKL [MAB21L2] | 77.4 ± 7.3% | 48.7 ± 1.9% | 93.37 ± 0.82% | 93.8 ± 0.28% | 85.5 ± 3.3% | 86.9 ± 0.91% |
| MFAKGKGSAVPSDGQAREKLALYVYEYLLHVGAQKSAQTFLSEIRWEKNITLGEPPGFLHSWWCVFWDLYCAAPERRDTCEHSSEAKAFHDYSAAAAPSPVLGNIPPNDGMPGGPIPPGFFQGPPGSQPSPHAQPPPHNPSSMMGPHSQPFMSPRYAGGPRPPIRMGNQPPGGVPGTQPLLPNSMDPTRQQGHPNMGGSMQRMNPPRGMGPMGPGPQNYGSGMRPPPNSLGPAMPGINMGPGAGRPWPNPNSANSIPYSSSSPGTYVGPPGGGGPPGTPIMPSPADSTNSSDNIYTMINPVPPGGSRSNFPMGPGSDGPMGGMGGMEPHHMNGSLGSGDIDGLPKNSPNNISGISNPPGTPRDDGELGGNFLHSFQNDNYSPSMTMSV [SSBP3] | 63.1 ± 3.4% | 3.95 ± 1.2% | 94.42 ± 0.81% | 95.08 ± 0.28% | 83.27 ± 0.48% | 54.1 ± 14% |
| MLLRSKPALPPPLMLLLLGPLGPLSPGALPRPAQAQDVVDLDFFTQEPLHLVSPSFLSVTIDANLATDPRFLILLGSPKLRTLARGLSPAYLRFGGTKTDFLIFDPKKESTFEERSYWQSQVNQDICKYGSIPPDVEEKLRLEWPYQEQLLLREHYQKKFKNSTYSRSSVDVLYTFANCSGLDLIFGLNALLRTADLQWNSSNAQLLLDYCSSKGYNISWELGNEPNSFLKKADIFINGSQLGEDFIQLHKLLRKSTFKNAKLYGPDVGQPRRKTAKMLKSFLKAGGEVIDSVTWHHYYLNGRTATKEDFLNPDVLDIFISSVQKVFQVVESTRPGKKVWLGETSSAYGGGAPLLSDTFAAGFMWLDKLGLSARMGIEVVMRQVFFGAGNYHLVDENFDPLPDYWLSLLFKKLVGTKVLMASVQGSKRRKLRVYLHCTNTDNPRYKEGDLTLYAINLHNVTKYLRLPYPFSNKQVDKYLLRPLGPHGLLSKSVQLNGLTLKMVDDQTLPPLMEKPLRPGSSLGLPAFSYSFFVIRNAKVAACI [HPSE] | 97.15 ± 0.33% | 79.82 ± 0.76% | 96 ± 1.1% | 95.86 ± 0.27% | 90.1 ± 0.52% | 90.5 ± 1.7% |
| MALLLALSLLVLWTSPAPTLSGTNDAEDCCLSVTQKPIPGYIVRNFHYLLIKDGCRVPAVVFTTLRGRQLCAPPDQPWVERIIQRLQRTSAKMKRRSS [CCL19] | 95.7 ± 1.2% | 81.5 ± 1.8% | 95.5 ± 0.73% | 95.12 ± 0.1% | 92.83 ± 0.53% | 92.52 ± 0.47% |
| MKLRSSHNASKTLNANNMETLIECQSEGDIKEHPLLASCESEDSICQLIEVKKRKKVLSWPFLMRRLSPASDFSGALETDLKASLFDQPLSIICGDSDTLPRPIQDILTILCLKGPSTEGIFRRAANEKARKELKEELNSGDAVDLERLPVHLLAVVFKDFLRSIPRKLLSSDLFEEWMGALEMQDEEDRIEALKQVADKLPRPNLLLLKHLVYVLHLISKNSEVNRMDSSNLAICIGPNMLTLENDQSLSFEAQKDLNNKVKTLVEFLIDNCFEIFGENIPVHSSITSDDSLEHTDSSDVSTLQNDSAYDSNDPDVESNSSSGISSPSRQPQVPMATAAGLDSAGPQDAREVSPEPIVSTVARLKSSLAQPDRRYSEPSMPSSQECLESRVTNQTLTKSEGDFPVPRVGSRLESEEAEDPFPEEVFPAVQGKTKRPVDLKIKNLAPGSVLPRALVLKAFSSSSLDASSDSSPVASPSSPKRNFFSRHQSFTTKTEKGKPSREIKKHSMSFTFAPHKKVLTKNLSAGSGKSQDFTRDHVPRGVRKESQLAGRIVQENGCETHNQTARGFCLRPHALSVDDVFQGADWERPGSPPSYEEAMQGPAARLVASESQTVGSMTVGSMRARMLEAHCLLPPLPPAHHVEDSRHRGSKEPLPGHGLSPLPERWKQSRTVHASGDSLGHVSGPGRPELLPLRTVSESVQRNKRDCLVRRCSQPVFEADQFQYAKESYI [TAGAP] | 91.3 ± 3% | 64.8 ± 2.3% | 86.1 ± 4.6% | 92.53 ± 0.75% | 85 ± 2% | 89.95 ± 0.44% |
| MSSILPFTPPIVKRLLGWKKGEQNGQEEKWCEKAVKSLVKKLKKTGQLDELEKAITTQNVNTKCITIPRSLDGRLQVSHRKGLPHVIYCRLWRWPDLHSHHELRAMELCEFAFNMKKDEVCVNPYHYQRVETPVLPPVLVPRHTEIPAEFPPLDDYSHSIPENTNFPAGIEPQSNIPETPPPGYLSEDGETSDHQMNHSMDAGSPNLSPNPMSPAHNNLDLQPVTYCEPAFWCSISYYELNQRVGETFHASQPSMTVDGFTDPSNSERFCLGLLSNVNRNAAVELTRRHIGRGVRLYYIGGEVFAECLSDSAIFVQSPNCNQRYGWHPATVCKIPPGCNLKIFNNQEFAALLAQSVNQGFEAVYQLTRMCTIRMSFVKGWGAEYRRQTVTSTPCWIELHLNGPLQWLDKVLTQMGSPSIRCSSVS [SMAD3] | 77.4 ± 2.3% | 40.7 ± 1.2% | 93.92 ± 0.8% | 94.56 ± 0.45% | 80.2 ± 1.3% | 88.2 ± 1.7% |
| MLRAGAPTGDLPRAGEVHTGTTIMAVEFDGGVVMGSDSRVSAGEAVVNRVFDKLSPLHERIYCALSGSAADAQAVADMAAYQLELHGIELEEPPLVLAAANVVRNISYKYREDLSAHLMVAGWDQREGGQVYGTLGGMLTRQPFAIGGSGSTFIYGYVDAAYKPGMSPEECRRFTTDAIALAMSRDGSSGGVIYLVTITAAGVDHRVILGNELPKFYDE [PSMB9] | 80 ± 1.9% | 24.2 ± 0.77% | 90.2 ± 1.4% | 91.27 ± 0.32% | 87.59 ± 0.53% | 83.1 ± 1.6% |
| MRRLWGAARKPSGAGWEKEWAEAPQEAPGAWSGRLGPGRSGRKGRAVPGWASWPAHLALAARPARHLGGAGQGPRPLHSGTAPFHSRASGERQRRLEPQLQHESRCRSSTPADAWRAEAALPVRAMGAPWGSPTAAAGGRRGWRRGRGLPWTVCVLAAAGLTCTALITYACWGQLPPLPWASPTPSRPVGVLLWWEPFGGRDSAPRPPPDCRLRFNISGCRLLTDRASYGEAQAVLFHHRDLVKGPPDWPPPWGIQAHTAEEVDLRVLDYEEAAAAAEALATSSPRPPGQRWVWMNFESPSHSPGLRSLASNLFNWTLSYRADSDVFVPYGYLYPRSHPGDPPSGLAPPLSRKQGLVAWVVSHWDERQARVRYYHQLSQHVTVDVFGRGGPGQPVPEIGLLHTVARYKFYLAFENSQHLDYITEKLWRNALLAGAVPVVLGPDRANYERFVPRGAFIHVDDFPSASSLASYLLFLDRNPAVYRRYFHWRRSYAVHITSFWDEPWCRVCQAVQRAGDRPKSIRNLASWFER [FUT4] | 94.45 ± 0.48% | 62.4 ± 5.3% | 92 ± 1.1% | 94.23 ± 0.27% | 89 ± 2.8% | 92.68 ± 0.55% |
| PDK1 | 94.39 ± 0.65% | 65.7 ± 2.9% | 95.24 ± 0.62% | 95.39 ± 0.19% | 93.83 ± 0.42% | 93.94 ± 0.33% |

From the supplement of paper PMC3353916
